Results published in publication doi:10.1101/2021.01.28.428610.

Target: Cg1978-C-His (Gip with a C-terminal His tag) (Corynebacterium glutamicum ATCC 13032 (CGP3 prophage))
Assay: SPR

Work on “GyrA-N-Strep (C. glutamicum DNA gyrase subunit A with an N-terminal Strep-tag) (from UniProt Q8NUC6 1-856) (natural protein)” yielded a Kd of 5.4 nM, a koff of 0.00092 s⁻¹ and a kon of 97000 M⁻¹ s⁻¹.
